The record followed here is PMC4822050, “Hemi-methylated DNA opens a closed conformation of UHRF1 to facilitate its histone recognition” (Nature Communications, 2016).

For orientation: Kd means the concentration at which binding is half-saturated.

B1: Spacer of UHRF1 (residues 587–674) [human] / TTD of UHRF1 (residues 134–285) [human] (parent)
chain 1: PGPWTKEGKDRIKKLGLTMQYPEGYLEALANREREKENSKREEEEQQEGGFASPRTGKGKWKRKSAGGGPSRAGSPRRTSKKTKVEPY
chain 2: LYKVNEYVDARDTNMGAWFEAQVVRVTRKAPSRDEPCSSTSRPALEEDVIYHVKYDDYPENGVVQMNSRDVRARARTIIKWQDLEVGQVVMLNYNPDNPKERGFWYDAEISRKRETRTARELYANVVLGDDSLNDCRIIFVDEVFKIERPGE

This assay covers variants of B1. Kind of assay: ITC. The note with it: with TTD of UHRF1 (residues 134–285) [human]; Cell: Spacer; Sy: TTD.
Consider chain 1 PGPWTKEGKDRIKKLGLTMQYPEGYLEALANREREKENSKREEEEQQEGGFASPRTGKGKWKAKSAGGGPSRAGSPRRTSKKTKVEPY [chain 1 R63A], for which the Kd was determined as 21.4 µM. In the case of chain 1 PGPWTKEGKDRIKKLGLTMQYPEGYLEALANREREKENSKREEEEQQEGGFASPRTGKGKWKRKSAGGGPSRAGSPRRTDKKTKVEPY [chain 1 S80D], the Kd amounted to 1.26 µM. In the case of chain 1 PGPWTKEGKDRIKKLGLTMQYPEGYLEALANREREKENSKREEEEQQEGGFADPRTGKGKWKRKSAGGGPSRAGSPRRTSKKTKVEPY [chain 1 S53D] it was 1.15 µM; in that of chain 1 PGPWTKEGKDRIKKLGLTMQYPEGYLEALANREREKENSKREEEEQQEGGFASPRTGKGKWDRKSAGGGPSRAGSPRRTSKKTKVEPY [chain 1 K62D], 5.94 µM.
